Reference: US20170158757A1 (Bristol-Myers Squibb, published 2017)
Numbering of substitutions follows the chain as printed.

T1: human MIG (human, UniProt Q07325 23-125)
T1 construct: also called monokine induced by gamma interferon; CXCL9
T1 sequence: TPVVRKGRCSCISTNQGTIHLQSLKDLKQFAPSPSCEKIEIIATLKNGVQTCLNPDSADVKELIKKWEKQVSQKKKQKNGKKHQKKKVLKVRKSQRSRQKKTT

T2: human ITAC (human, UniProt O14625 22-94)
T2 construct: also called interferon-inducible T cell alpha chemoattractant; CXCL11
T2 sequence: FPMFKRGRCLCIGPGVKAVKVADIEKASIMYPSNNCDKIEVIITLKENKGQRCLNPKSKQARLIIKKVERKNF

T3: human IP-10 (human, UniProt P02778 22-98)
T3 construct: The HDX-MS text says 'recombinant full length human IP-10'; An IP10 dimer was placed in the crystal structure; also called huIP-10; CXCL10
T3 sequence: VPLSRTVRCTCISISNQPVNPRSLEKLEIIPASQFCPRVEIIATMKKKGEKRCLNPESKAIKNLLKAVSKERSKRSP

T4: mouse IP-10 (mouse, UniProt P17515 22-98)
T4 sequence: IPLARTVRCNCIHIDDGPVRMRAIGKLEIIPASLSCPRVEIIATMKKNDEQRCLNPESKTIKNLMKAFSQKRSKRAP

T5: cynomolgus monkey IP-10 (cynomolgus monkey, UniProt A0A2K5WKN6 22-98)
T5 construct: endogenous serum IP-10 in the monkey studies; also called cynoIP-10; cyno IP10
T5 sequence: T3 sequence with V1I, A32P, R38H

B1: IP10.1 (antibody, human IgG1, kappa, V domains shown)
VH: QMQLVESGGGVVQPGRSLRLSCTASGFTFSNNGMHWVRQAPGKGLEWVAVIWFDGMNKFYVDSVKGRFTISRDNSKNTLYLEMNSLRAEDTAIYYCAREGDGSGIYYYYGMDVWGQGTTVTVSS
VL: not shown
notes: Human IgG1 (g1f) full-length antibody; Parent antibody of all variants; also called 6A5; antibody 6A5
B2: IP10.44 (antibody, human IgG1, kappa, V domains shown)
VH: QVQLVESGGGVVQPGRSLRLSCAASGFTFSEYGMHWVRQAPGKGLEWVAVIGFAGLIKGYADSVKGRFTISRDNSKNTLYLQMNSLRAEDTAVYYCAREGAGSNIYYYYGMDVWGQGTTVTVSS
VL: not shown
notes: Human IgG1 full-length antibody; also called BMS-986184; IP10.44-g1f
B3: IP10.46 (antibody, human IgG1, kappa, V domains shown)
VH: B2 VH with A23T, E31Q, G52S, F53Y, A54G, L56D, G59Y, A101E
VL: not shown
notes: IgG1 full-length variant of IP10.1; also called IP10.46-g1f
B4: IP10.49 (antibody, human IgG1, kappa, V domains shown)
VH: B2 VH with A23T, E31Q, Y32S, A54G, G59S, A101D, N104G
VL: not shown
notes: IgG1 full-length variant of IP10.1; also called IP10.49-g1f
B5: IP10.54 (antibody, human IgG1, kappa, V domains shown)
VH: B2 VH with A23T, E31Q, G52S, F53Y, A54G, L56D, G59Y, Q82E, V93I, A101E
VL: not shown
notes: IgG1 full-length variant of IP10.1; also called IP10.54-g1f
B6: IP10.48 (antibody, human IgG1, kappa, V domains shown)
VH: B2 VH with E31N, G52D, L56I, I57N, G59Y, A101E, Y107F, Y108F
VL: not shown
notes: IgG1 full-length variant of IP10.1; also called IP10.48-g1f
B7: IP10.45 (antibody, human IgG1, kappa, V domains shown)
VH: B2 VH with A23T, E31K, Y32H, L56V, G59S, A101E, Y107F
VL: not shown
notes: IgG1 full-length variant of IP10.1; also called IP10.45-g1f
B8: IP10.52 (antibody, human IgG1, kappa, V domains shown)
VH: B2 VH with A23T, E31D, F53Y, A54G, N104S, I105V
VL: not shown
notes: IgG1 full-length variant of IP10.1; also called IP10.52-g1f
B9: IP10.53 (antibody, human IgG1, kappa, V domains shown)
VH: B2 VH with E31D, G52S, F53H, A54N, L56A, A101D
VL: not shown
notes: IgG1 full-length variant of IP10.1; also called IP10.53-g1f
B10: IP10.43 (antibody, human IgG1, kappa, V domains shown)
VH: B2 VH with A23T, E31S, G52D, A54V, L56D, I57T, G59Y, A61T
VL: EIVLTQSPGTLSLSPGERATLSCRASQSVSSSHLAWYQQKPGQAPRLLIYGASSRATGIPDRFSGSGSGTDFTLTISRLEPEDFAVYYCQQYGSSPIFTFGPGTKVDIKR
notes: IgG1 full-length variant of IP10.1
B11: IP10.51 (antibody, human IgG1, kappa, V domains shown)
VH: B2 VH with A23T, E31D, F53Y, A54G, N104S
VL: not shown
notes: IgG1 full-length variant of IP10.1; also called IP10.51-g1f
B12: IP10.47 (antibody, human IgG1, kappa, V domains shown)
VH: B2 VH with E31T, Y32H, A54G, G59S, A101D, N104S, I105L, Y107F
VL: not shown
notes: IgG1 full-length variant of IP10.1; also called IP10.47-g1f

Columns and labels:
[1] = target: T1, human MIG; assay: Biacore SPR
[2] = target: T2, human ITAC; assay: Biacore SPR
[3] = target: T3, human IP-10; assay: SPR (Biacore) at 37 C, IgG1, human IP-10
[4] = target: T3, human IP-10; assay: Biacore SPR, huIP-10
[5] = target: T3, human IP-10; assay: Biacore-based binding studies
[6] = target: T4, mouse IP-10; assay: Biacore-based binding studies
[7] = target: T5, cynomolgus monkey IP-10; assay: in vivo Kd estimated by PK/PD modeling of free drug, free and total serum IP-10 in cynomolgus monkeys; in vivo Kd from PK/PD modeling in cynomolgus monkeys, not a direct binding assay
[8] = target: T5, cynomolgus monkey IP-10; assay: Biacore SPR, cynoIP-10
[9] = target: T3, human IP-10; assay: SPR (Biacore) at 37 C, IgG1, human IP-10 (second row for IP10.1g1f)
[10] = target: T3, human IP-10; assay: Biacore kinetic analysis
[11] = target: T3, human IP-10; assay: whole cell binding assays with I125-IP-10 (CXCR3/300.19 and KM12SM cells)
[12] = target: T3, human IP-10; assay: Biacore SPR, huIP-10 (text: limit of detection with the Biacore is 90 pM)
[13] = target: T3, human IP-10; assay: cell-based or functional assay
[14] = target: T5, cynomolgus monkey IP-10; assay: cell-based or functional assay
[15] = target: T5, cynomolgus monkey IP-10; assay: cell-based or functional assay; remark: listed apart in the source
[16] = target: T5, cynomolgus monkey IP-10; assay: in vivo Kd estimated by PK/PD modeling in cynomolgus monkeys
[17] = target: T1, human MIG; assay: Biacore SPR, MIG; Biacore, lot 3007: weak measured KD for MIG, about 17000 times weaker than for huIP-10 (0.01 nM)
[18] = target: T1, human MIG; assay: Biacore SPR, MIG

Binder	binding result [2]	Kd [3] [nM]	koff [3] [s⁻¹]	kon [3] [M⁻¹ s⁻¹]	koff [4] [s⁻¹]	kon [4] [M⁻¹ s⁻¹]	Kd [8] [nM]	further results
B1	no binding	4.18	0.000151	36200	6.8e-05	8000	14.9	binding result [1]: no binding; Kd [4]: 8.53 nM; Kd [5]: ~5 nM; binding result [6]: no binding; Kd [7]: 6.5 nM; Kd [9]: 6.27 nM; koff [9]: 0.000138 s⁻¹; kon [9]: 22000 M⁻¹ s⁻¹; estimated t1/2 (half-life of IP-10 association) [10]: ~3 h
B2	no binding	0.17	4e-06	26200	1e-07	11600	0.2	fold better potency than IP10.1 in blocking IP-10 binding to cells [11]: ≥ 5 fold; Kd [12]: 0.01 nM; fold improvement of KD against IP10.1 [5]: ≥ 50 fold; binding result [6]: no binding; Kd [7]: 0.043 nM; fold better potency than IP10.1, IL-6 secretion by hPBMCs [13]: ~6 fold; fold greater potency relative to IP10.1, IL-12p40 secretion by hPBMCs [13]: 4 fold; IC50 of free serum IP-10 suppression against free drug concentration in cynomolgus monkeys [14]: 0.223 nM; IC50 (read off the curve) [15]: ~0.3 nM; fold more potent than IP10.1 (in vivo Kd) [16]: ~150 fold; Kd [17]: 168 nM; estimated t1/2 (half-life of IP-10 association) [10]: > 100 h
B3	no binding	0.12	2e-06	13500	1e-06	9600	0.19	Kd [18]: 77.5 nM; Kd [4]: 0.11 nM
B4	–	0.41	6e-06	14700	–	–	–	–
B5	–	0.25	4e-06	15400	–	–	–	–
B6	–	0.34	5e-06	14100	–	–	–	–
B7	no binding	–	–	–	–	–	4.74	binding result [1]: no binding
B8	no binding	–	–	–	5e-07	13000	1.43	Kd [18]: 73.5 nM; Kd [4]: 0.04 nM
B9	no binding	–	–	–	–	–	0.22	Kd [18]: 54.3 nM
B10	–	1.64	1.7e-05	9300	–	–	–	–
B11	–	0.96	–	–	–	–	–	–
B12	–	0.56	1.4e-05	24000	–	–	–	–
